{"source": "the RNAGym collection of RNA variant scans (doi:10.7554/elife.80360)", "parents": {"B1": {"name": "Hairpin Ribozyme (parent)", "chain": "GUCCUCUUUCACGUGCGCGUGAAAGAGAGAAGUGAACCAGAGAAACACACGUUGUGGUAUAUUACCUGGUA"}}, "data": [{"variants_of": "B1", "assay": "self-cleavage, relative activity (ratio to wild type); higher = more cleavage; co-transcriptional", "values": [{"variant": "A23G U58A", "self-cleavage": 0.662}, {"variant": "A22G G51C", "self-cleavage": 0.745}, {"variant": "A23C A39G", "self-cleavage": 0.248}, {"variant": "A23U G27U", "self-cleavage": 0.289}, {"variant": "A23U C48G", "self-cleavage": 0.226}, {"variant": "A23C C38U", "self-cleavage": 0.398}, {"variant": "A23C C38A", "self-cleavage": 0.161}, {"variant": "A24C U55C", "self-cleavage": 0.305}, {"variant": "A24C U55A", "self-cleavage": 0.267}, {"variant": "A22U U62A", "self-cleavage": 0.161}, {"variant": "A22U U62C", "self-cleavage": 0.127}, {"variant": "A22C U70G", "self-cleavage": 0.763}, {"variant": "A23G C50G", "self-cleavage": 0.153}, {"variant": "A24C U62G", "self-cleavage": 0.199}, {"variant": "A22G C66U", "self-cleavage": 0.453}, {"variant": "A22G C66A", "self-cleavage": 0.172}, {"variant": "A23U U58A", "self-cleavage": 0.539}, {"variant": "A24C A49U", "self-cleavage": 0.119}, {"variant": "A23G C48U", "self-cleavage": 0.232}, {"variant": "A23G G42C", "self-cleavage": 0.33}, {"variant": "A22G G54A", "self-cleavage": 0.428}, {"variant": "A23G G25U", "self-cleavage": 0.357}, {"variant": "A23G G25A", "self-cleavage": 0.413}, {"variant": "A22G U53C", "self-cleavage": 0.817}, {"variant": "A23U A36G", "self-cleavage": 0.681}, {"variant": "A23U A36U", "self-cleavage": 0.491}, {"variant": "A22U A49U", "self-cleavage": 0.293}, {"variant": "A24G A35U", "self-cleavage": 0.645}, {"variant": "A24G A35G", "self-cleavage": 0.797}, {"variant": "A24G A35C", "self-cleavage": 0.82}, {"variant": "A24C G27A", "self-cleavage": 0.341}, {"variant": "A23G G51C", "self-cleavage": 0.91}, {"variant": "A23G G51A", "self-cleavage": 0.781}, {"variant": "A23U G32U", "self-cleavage": 0.19}, {"variant": "A23U G32A", "self-cleavage": 0.147}, {"variant": "A22G U55A", "self-cleavage": 0.318}, {"variant": "A24C U63C", "self-cleavage": 0.184}, {"variant": "A24G A43G", "self-cleavage": 0.132}, {"variant": "A22G A41G", "self-cleavage": 0.811}, {"variant": "A24G U70C", "self-cleavage": 0.913}, {"variant": "A23U C37U", "self-cleavage": 0.594}, {"variant": "A24C G69U", "self-cleavage": 0.188}, {"variant": "A22G C37G", "self-cleavage": 0.291}, {"variant": "A24C A36G", "self-cleavage": 0.928}, {"variant": "A23U A26G", "self-cleavage": 0.88}, {"variant": "A24G C38A", "self-cleavage": 0.125}, {"variant": "A24G C38G", "self-cleavage": 0.197}, {"variant": "A23G A44C", "self-cleavage": 0.0975}, {"variant": "A22G A26U", "self-cleavage": 0.528}, {"variant": "A24G A44G", "self-cleavage": 0.152}, {"variant": "A24C A64C", "self-cleavage": 0.192}, {"variant": "A23G G27C", "self-cleavage": 0.149}, {"variant": "A23G", "self-cleavage": 0.851}, {"variant": "A23C", "self-cleavage": 0.822}, {"variant": "A23U", "self-cleavage": 0.852}, {"variant": "A22U A61U", "self-cleavage": 0.198}, {"variant": "A22U A61G", "self-cleavage": 0.155}, {"variant": "A22U A61C", "self-cleavage": 0.171}, {"variant": "A23U G29A", "self-cleavage": 0.145}, {"variant": "A23C A43U", "self-cleavage": 0.115}, {"variant": "A22U A26G", "self-cleavage": 0.743}, {"variant": "A22U A39U", "self-cleavage": 0.359}, {"variant": "A24C G34U", "self-cleavage": 1.43}, {"variant": "A24C G34C", "self-cleavage": 1.07}, {"variant": "A23U U52G", "self-cleavage": 0.753}, {"variant": "A24G A39G", "self-cleavage": 0.308}, {"variant": "A23C A71U", "self-cleavage": 0.832}, {"variant": "A23U G54A", "self-cleavage": 0.551}, {"variant": "A22G U33A", "self-cleavage": 0.115}, {"variant": "A22G U33C", "self-cleavage": 0.192}, {"variant": "A22G C38U", "self-cleavage": 0.589}, {"variant": "A22G C38G", "self-cleavage": 0.185}, {"variant": "A24G G57C", "self-cleavage": 0.118}, {"variant": "A24G G57A", "self-cleavage": 0.228}, {"variant": "A22G A28G", "self-cleavage": 0.735}, {"variant": "A24C A39U", "self-cleavage": 0.573}, {"variant": "A22G C46A", "self-cleavage": 0.171}, {"variant": "A24C G54A", "self-cleavage": 0.547}, {"variant": "A23G U63G", "self-cleavage": 0.338}, {"variant": "A23C C65A", "self-cleavage": 0.818}, {"variant": "A23C C65U", "self-cleavage": 0.282}, {"variant": "A22U G40A", "self-cleavage": 0.218}, {"variant": "A22U G40U", "self-cleavage": 0.115}, {"variant": "A23U A61G", "self-cleavage": 0.125}, {"variant": "A23U A61C", "self-cleavage": 0.126}, {"variant": "A23U C66G", "self-cleavage": 0.222}, {"variant": "A23U C66U", "self-cleavage": 0.545}, {"variant": "A23G C66U", "self-cleavage": 0.456}, {"variant": "A24C U33A", "self-cleavage": 0.2}, {"variant": "A22U C50A", "self-cleavage": 0.211}, {"variant": "A22U C50U", "self-cleavage": 0.342}, {"variant": "A23U A49U", "self-cleavage": 0.193}, {"variant": "A22U A30G", "self-cleavage": 0.159}, {"variant": "A22U A28G", "self-cleavage": 1.13}, {"variant": "A23G A35C", "self-cleavage": 1}, {"variant": "A23G A35U", "self-cleavage": 0.626}, {"variant": "A22U U70A", "self-cleavage": 0.768}, {"variant": "A22U U70G", "self-cleavage": 0.674}, {"variant": "A24G C50A", "self-cleavage": 0.187}, {"variant": "A24G G25U", "self-cleavage": 0.527}, {"variant": "A24G C48G", "self-cleavage": 0.181}, {"variant": "A24G C48U", "self-cleavage": 0.179}, {"variant": "A22U G42A", "self-cleavage": 0.264}, {"variant": "A24C A59U", "self-cleavage": 0.204}, {"variant": "A23U U53C", "self-cleavage": 0.935}, {"variant": "A23U U53A", "self-cleavage": 0.969}, {"variant": "A23U U53G", "self-cleavage": 0.696}, {"variant": "A22G A64U", "self-cleavage": 0.173}, {"variant": "A24C G42U", "self-cleavage": 0.374}, {"variant": "A22G C48A", "self-cleavage": 0.16}, {"variant": "A22G C48G", "self-cleavage": 0.136}, {"variant": "A23U A45U", "self-cleavage": 0.2}, {"variant": "A22U C37U", "self-cleavage": 0.443}, {"variant": "A22U C37A", "self-cleavage": 0.352}, {"variant": "A23C C46G", "self-cleavage": 0.092}, {"variant": "A22U A71C", "self-cleavage": 1.37}, {"variant": "A23U G51A", "self-cleavage": 0.844}, {"variant": "A23U G51C", "self-cleavage": 0.832}, {"variant": "A22G A47C", "self-cleavage": 0.27}, {"variant": "A23C U33C", "self-cleavage": 0.307}, {"variant": "A23C U33G", "self-cleavage": 0.171}, {"variant": "A23U U55C", "self-cleavage": 0.358}, {"variant": "A23U G42A", "self-cleavage": 0.214}, {"variant": "A24C G32U", "self-cleavage": 0.166}, {"variant": "A22G G29C", "self-cleavage": 0.129}, {"variant": "A23G G69C", "self-cleavage": 0.303}, {"variant": "A22U A44G", "self-cleavage": 0.113}, {"variant": "A22U A44C", "self-cleavage": 0.239}, {"variant": "A22U G29A", "self-cleavage": 0.13}, {"variant": "A24C U52A", "self-cleavage": 1.05}, {"variant": "A24C U52G", "self-cleavage": 1.08}, {"variant": "A23U A24U", "self-cleavage": 0.737}, {"variant": "A23C G56A", "self-cleavage": 0.187}, {"variant": "A22G A31U", "self-cleavage": 0.226}, {"variant": "A23G A59C", "self-cleavage": 0.0706}, {"variant": "A23G A64C", "self-cleavage": 0.2}, {"variant": "A23C C50G", "self-cleavage": 0.259}, {"variant": "A23C C50A", "self-cleavage": 0.318}, {"variant": "A23C C50U", "self-cleavage": 0.373}, {"variant": "A22U A24G", "self-cleavage": 0.76}, {"variant": "A23C G25A", "self-cleavage": 0.235}, {"variant": "A24C G68A", "self-cleavage": 0.233}, {"variant": "A23G A31G", "self-cleavage": 0.416}, {"variant": "A22G G69C", "self-cleavage": 0.209}, {"variant": "A23G A30G", "self-cleavage": 0.211}, {"variant": "A24C G40U", "self-cleavage": 0.132}, {"variant": "A23C A45G", "self-cleavage": 0.173}, {"variant": "A22U G34A", "self-cleavage": 1.24}, {"variant": "A22U G68A", "self-cleavage": 0.389}, {"variant": "A22U G68U", "self-cleavage": 0.188}, {"variant": "A24C A43U", "self-cleavage": 0.115}, {"variant": "A23G U33C", "self-cleavage": 0.0496}, {"variant": "A23U G68A", "self-cleavage": 0.184}, {"variant": "A23U G68C", "self-cleavage": 0.139}, {"variant": "A22G U63C", "self-cleavage": 0.245}, {"variant": "A24G U53C", "self-cleavage": 0.881}, {"variant": "A24U A35U", "self-cleavage": 0.584}, {"variant": "A24U A35C", "self-cleavage": 0.951}, {"variant": "A22G G40A", "self-cleavage": 0.272}, {"variant": "A22G G40C", "self-cleavage": 0.146}, {"variant": "A23U G56U", "self-cleavage": 0.184}, {"variant": "A23U G56A", "self-cleavage": 0.237}, {"variant": "A23G C37A", "self-cleavage": 0.287}, {"variant": "A23G C37G", "self-cleavage": 0.311}, {"variant": "A24U A31U", "self-cleavage": 0.0897}, {"variant": "A24U A31G", "self-cleavage": 0.392}, {"variant": "A22U A45U", "self-cleavage": 0.143}]}]}
